The source of these data is patent US20240132624A1 (Ablynx, published 2024).

Sequences and labels used below:
B1: T026301078 (VHH, name in Kabat numbering)
VHH: EVQLVESGGGVVQPGGSLRLSCAASGFTFSEYDMYWVRQAPGKGLEWVSAISQGGGSTDYADSVKGRFTISRDNSKNTLYLQMNSLRPEDTALYYCAADTLYTDLTWYSYWGQGTLVTVSS
notes: tagless
B2: T026301089 (VHH, name in Kabat numbering)
VHH: EVQLVESGGGVVQPGGSLRLSCAASGFTFSSYAMYWVRQAPGKGLEWVSAISSGGGSTDYADSVKGRFTISRDNSKNTLYLQMNSLRPEDTALYYCAADTLYTDLTKYSYWGQGTLVTVSS
notes: tagless
B3: T026301110 (VHH, name in Kabat numbering)
VHH: EVQLVESGGGVVQPGGSLRLSCAASGFTFSEYAMYWVRQAPGKGLEWVSAISQGGGSTDYADSVKGRFTISRDNSKNTLYLQMNSLRPEDTALYYCAADTLYTDLTWYSYWGQGTLVTVSS
notes: tagless
B4: T026301088 (VHH, name in Kabat numbering)
VHH: EVQLVESGGGVVQPGGSLRLSCAASGFTFSSYDMYWVRQAPGKGLEWVSAISSGGGSTDYADSVKGRFTISRDNSKNTLYLQMNSLRPEDTALYYCAADTLYTSLTKYSYWGQGTLVTVSS
notes: tagless
B5: T026301084 (VHH, name in Kabat numbering)
VHH: EVQLVESGGGVVQPGGSLRLSCAASGFTFSSYAMYWVRQAPGKGLEWVSAISSGGGSTDYADSVKGRFTISRDNSKNTLYLQMNSLRPEDTALYYCAADTLYTDLTSYSYWGQGTLVTVSS
notes: tagless
B6: T026301107 (VHH, name in Kabat numbering)
VHH: EVQLVESGGGVVQPGGSLRLSCAASTFTFSSYDMYWVRQAPGKGLEWVSAISQGGGSTDYADSVKGRFTISRDNSKNTLYLQMNSLRPEDTALYYCAADTLYTSLTSYSYWGQGTLVTVSS
notes: tagless
B7: T026301090 (VHH, name in Kabat numbering)
VHH: EVQLVESGGGVVQPGGSLRLSCAASTFTFSSYAMYWVRQAPGKGLEWVSAISQGGGSTDYADSVKGRFTISRDNSKNTLYLQMNSLRPEDTALYYCAADTLYTSLTKYSYWGQGTLVTVSS
notes: tagless
B8: T026301112 (VHH, name in Kabat numbering)
VHH: EVQLVESGGGVVQPGGSLRLSCAASGFTFSEYDMYWVRQAPGKGLEWVSAISQGGGSTDYADSVKGRFTISRDNSKNTLYLQMNSLRPEDTALYYCAADTLYTSLTKYSYWGQGTLVTVSS
notes: tagless
B9: T026301082 (VHH, name in Kabat numbering)
VHH: EVQLVESGGGVVQPGGSLRLSCAASTFTFSSYAMYWVRQAPGKGLEWVSAISSGGGSTDYADSVKGRFTISRDNSKNTLYLQMNSLRPEDTALYYCAADTLYTDLTSYSYWGQGTLVTVSS
notes: tagless
B10: T026301083 (VHH, name in Kabat numbering)
VHH: EVQLVESGGGVVQPGGSLRLSCAASGFTFSEYAMYWVRQAPGKGLEWVSAISQGGGSTDYADSVKGRFTISRDNSKNTLYLQMNSLRPEDTALYYCAADTLYTDLTSYSYWGQGTLVTVSS
notes: tagless
B11: T026301125 (VHH, name in Kabat numbering)
VHH: EVQLVESGGGVVQPGGSLRLSCAASGFTFSEYAMYWVRQAPGKGLEWVSAISSGGGSTDYADSVKGRFTISRDNSKNTLYLQMNSLRPEDTALYYCAADTLYTSLTKYSYWGQGTLVTVSS
notes: tagless
B12: T026301109 (VHH, name in Kabat numbering)
VHH: EVQLVESGGGVVQPGGSLRLSCAASTFTFSSYDMYWVRQAPGKGLEWVSAISQGGGSTDYADSVKGRFTISRDNSKNTLYLQMNSLRPEDTALYYCAADTLYTSLTWYSYWGQGTLVTVSS
notes: tagless
B13: T026301126 (VHH, name in Kabat numbering)
VHH: EVQLVESGGGVVQPGGSLRLSCAASTFTFSSYAMYWVRQAPGKGLEWVSAISSGGGSTDYADSVKGRFTISRDNSKNTLYLQMNSLRPEDTALYYCAADTLYTSLTKYSYWGQGTLVTVSS
notes: tagless
B14: T026301124 (VHH, name in Kabat numbering)
VHH: EVQLVESGGGVVQPGGSLRLSCAASTFTFSEYAMYWVRQAPGKGLEWVSAISQGGGSTDYADSVKGRFTISRDNSKNTLYLQMNSLRPEDTALYYCAADTLYTSLTKYSYWGQGTLVTVSS
notes: tagless
B15: T026301097 (VHH, name in Kabat numbering)
VHH: EVQLVESGGGVVQPGGSLRLSCAASTFTFSEYAMYWVRQAPGKGLEWVSAISQGGGSTDYADSVKGRFTISRDNSKNTLYLQMNSLRPEDTALYYCAADTLYTSLTWYSYWGQGTLVTVSS
notes: tagless
B16: T026301096 (VHH, name in Kabat numbering)
VHH: EVQLVESGGGVVQPGGSLRLSCAASGFTFSSYAMYWVRQAPGKGLEWVSAISQGGGSTDYADSVKGRFTISRDNSKNTLYLQMNSLRPEDTALYYCAADTLYTDLTSYSYWGQGTLVTVSS
notes: tagless
B17: T026301113 (VHH, name in Kabat numbering)
VHH: EVQLVESGGGVVQPGGSLRLSCAASGFTFSEYAMYWVRQAPGKGLEWVSAISQGGGSTDYADSVKGRFTISRDNSKNTLYLQMNSLRPEDTALYYCAADTLYTSLTKYSYWGQGTLVTVSS
notes: tagless
B18: T026301123 (VHH, name in Kabat numbering)
VHH: EVQLVESGGGVVQPGGSLRLSCAASTFTFSSYDMYWVRQAPGKGLEWVSAISSGGGSTDYADSVKGRFTISRDNSKNTLYLQMNSLRPEDTALYYCAADTLYTSLTWYSYWGQGTLVTVSS
notes: tagless
B19: T026301081 (VHH, name in Kabat numbering)
VHH: EVQLVESGGGVVQPGGSLRLSCAASTFTFSSYAMYWVRQAPGKGLEWVSAISSGGGSTDYADSVKGRFTISRDNSKNTLYLQMNSLRPEDTALYYCAADTLYTSLTSYSYWGQGTLVTVSS
notes: tagless
B20: T026301085 (VHH, name in Kabat numbering)
VHH: EVQLVESGGGVVQPGGSLRLSCAASGFTFSSYAMYWVRQAPGKGLEWVSAISQGGGSTDYADSVKGRFTISRDNSKNTLYLQMNSLRPEDTALYYCAADTLYTDLTWYSYWGQGTLVTVSS
notes: tagless
B21: T026301121 (VHH, name in Kabat numbering)
VHH: EVQLVESGGGVVQPGGSLRLSCAASTFTFSEYDMYWVRQAPGKGLEWVSAISQGGGSTDYADSVKGRFTISRDNSKNTLYLQMNSLRPEDTALYYCAADTLYTSLTWYSYWGQGTLVTVSS
notes: tagless
B22: T026301094 (VHH, name in Kabat numbering)
VHH: EVQLVESGGGVVQPGGSLRLSCAASTFTFSEYDMYWVRQAPGKGLEWVSAISQGGGSTDYADSVKGRFTISRDNSKNTLYLQMNSLRPEDTALYYCAADTLYTSLTSYSYWGQGTLVTVSS
notes: tagless
B23: T026301086 (VHH, name in Kabat numbering)
VHH: EVQLVESGGGVVQPGGSLRLSCAASGFTFSEYDMYWVRQAPGKGLEWVSAISSGGGSTDYADSVKGRFTISRDNSKNTLYLQMNSLRPEDTALYYCAADTLYTDLTWYSYWGQGTLVTVSS
notes: tagless

T1 sequence (chain, as listed by the source limits assumed, chain 1 of 2): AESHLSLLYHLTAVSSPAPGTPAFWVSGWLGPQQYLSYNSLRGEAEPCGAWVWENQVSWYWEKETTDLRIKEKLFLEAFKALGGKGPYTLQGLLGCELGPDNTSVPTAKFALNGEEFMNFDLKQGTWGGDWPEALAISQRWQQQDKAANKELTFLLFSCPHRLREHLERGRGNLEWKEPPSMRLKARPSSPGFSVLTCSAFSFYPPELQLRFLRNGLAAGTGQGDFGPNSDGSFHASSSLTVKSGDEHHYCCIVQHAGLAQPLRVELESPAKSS
T1 sequence (P61769 21-119 limits assumed, chain 2 of 2): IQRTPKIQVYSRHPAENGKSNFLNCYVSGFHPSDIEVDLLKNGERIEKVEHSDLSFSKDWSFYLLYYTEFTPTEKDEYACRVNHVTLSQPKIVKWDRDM

This experiment has as its target T1, human FcRn/b2M (human, UniProt P61769 21-119, biotinylated).
T1 construct: bought recombinant biotinylated protein (ACRO FCM-H82W4 or Immunitrack ITF01); also called hFcRn; hFcRn/hb2M
Kind of experiment: SPR pH 6.0.
For orientation: koff means the first-order rate constant of dissociation. A low value points to a long-lived complex. Consider B1, for which the dissociation rate constant (koff) stood at 0.0095 s⁻¹.

The molecule B2 had an off-rate (koff) of 0.028 s⁻¹.

With B3, the koff was 0.014 s⁻¹.

Regarding B4, the koff is 0.0093 s⁻¹.

As to B5, the koff is 0.021 s⁻¹.

Turning to B6, the koff worked out at 0.0045 s⁻¹.

Consider B7, for which the off-rate constant (koff) is 0.033 s⁻¹.

As to B8, the koff stood at 0.0072 s⁻¹.

B9: the koff was found to be 0.054 s⁻¹. Against the preceding molecule, the koff is about 7.5-fold higher.

In turn, B10 had an off-rate (koff) of 0.067 s⁻¹.

B11 had a koff of 0.0082 s⁻¹.

The molecule B12 returned an off-rate constant (koff) of 0.0013 s⁻¹.

Molecule B13 returned a koff of 0.01 s⁻¹.

The molecule B14 came in with an off-rate constant (koff) of 0.059 s⁻¹.

In turn, B15 registered a koff of 0.0067 s⁻¹.

In the case of B16, the koff worked out at 0.034 s⁻¹.

In the case of B17, the off-rate constant (koff) amounted to 0.021 s⁻¹.

The molecule B18 returned a koff of 0.0054 s⁻¹.

B19 showed a koff of 0.0088 s⁻¹.

The molecule B20 displayed an off-rate constant (koff) of 0.0066 s⁻¹.

B21 had an off-rate (koff) of 0.0018 s⁻¹.

For B22, the koff came to 0.01 s⁻¹. Against the preceding molecule, the koff is about 5.6-fold higher.

The molecule B23 showed an off-rate constant (koff) of 0.013 s⁻¹.
